Reference: publication PMC7954794, “Protein context shapes the specificity of SH3 domain-mediated interactions in vivo” (Nature Communications, 2021)

B1: LSB3 (protein)
chain: MGINNPIPRSLKSETKKAAKILASFVKPNQVFGADQVIPPDVLKRAKGLAIITILKAGFLFSGRAGSGVIVARLKDGTWSAPSAIAMAGAGAGGMVGIELTDFVFILNTQDAVKSFSEFGTITLGGNVSVSAGPLGRSAEAAASASAGGVAAVFAYSKSKGLFAGVSVEGSAIIERREANRKFYGDNCTAKMILSGRIRPPPAVDPLFRVLESRAFNYRPSNGGRGSFDDDEDDYYDDDDYYNDIPSSFSSTDASSTRPNTRSTRRRAQSGSRYTFDDDDDDDDYGTGYSRNSRLAPTNSGGSGGKLDDPSGASSYYASHRRSGTAQSRARSSRNRWADDEYDDYDDDYESGYRRGNGRDRTKDREVDDLSNRFSKSRISSASTPQTSQGRFTAPTSPSTSSPKAVALYSFAGEESGDLPFRKGDVITILKKSDSQNDWWTGRVNGREGIFPANYVELV
modifications: left off: DHFR F[3], C-terminal, kept
B2: LSB1 (protein, UniProt P53281 2-241, looked up)
LAS seventeen-binding protein …: SASLVNRSLKNIRNELEFLKESNVISGDIFELINSKLPEKWDGNQRSPQNADTEEYVEALYDFEAQQDGDLSLKTGDKIQVLEKISPDWYRGKSNNKIGIFPANYVKPAFTRSASPKSAEAASSSTVSRPSVPPPSYEPAASQYPSQQVSAPYAPPAGYMQAPPPQQQQAPLPYPPPFTNYYQQPQQQYAPPSQQAPVEAQPQQSSGASSAFKSFGSKLGNAAIFGAGSAIGSDIVNSIF

System: Abp1 PPIs
Assay: DHFR-PCA of Abp1 SH3-swapped baits (Fig. 2B-D, S2C, S2F);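 as to Protein-protein interaction distance between Abp1 SH3-swapped baits, to ABP1: Euclidean distance between DHFR-PCA score profiles of the baits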;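 as to Protein-protein interaction distance between Abp1 SH3-swapped baits, to BEM1-2: Euclidean distance between DHFR-PCA score profiles of the baits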;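 as to Protein-protein interaction distance between Abp1 SH3-swapped baits, to BOI1: Euclidean distance between DHFR-PCA score profiles of the baits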;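 as to Protein-protein interaction distance between Abp1 SH3-swapped baits, to BZZ1-1: Euclidean distance between DHFR-PCA score profiles of the baits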
Assay type: cell-based, Saccharomyces cerevisiae
Conditions: for Protein-protein interaction distance between Abp1 SH3-swapped baits, to ABP1: Abp1 bait with swapped SH3, distance to bait with ABP1 SH3; for Protein-protein interaction distance between Abp1 SH3-swapped baits, to BBC1: distance to Abp1 bait with BBC1 SH3; for Protein-protein interaction distance between Abp1 SH3-swapped baits, to BEM1-1: distance to Abp1 bait with BEM1-1 SH3; for Protein-protein interaction distance between Abp1 SH3-swapped baits, to BEM1-2: distance to Abp1 bait with BEM1-2 SH3; for Protein-protein interaction distance between Abp1 SH3-swapped baits, to BOI1: distance to Abp1 bait with BOI1 SH3; for Protein-protein interaction distance between Abp1 SH3-swapped baits, to BOI2: distance to Abp1 bait with BOI2 SH3; for Protein-protein interaction distance between Abp1 SH3-swapped baits, to BUD14: distance to Abp1 bait with BUD14 SH3; for Protein-protein interaction distance between Abp1 SH3-swapped baits, to BZZ1-1: distance to Abp1 bait with BZZ1-1 SH3; for Protein-protein interaction distance between Abp1 SH3-swapped baits, to BZZ1-2: distance to Abp1 bait with BZZ1-2 SH3; for Protein-protein interaction distance between Abp1 SH3-swapped baits, to CDC25: distance to Abp1 bait with CDC25 SH3; for Protein-protein interaction distance between Abp1 SH3-swapped baits, to CTTN: distance to Abp1 bait with CTTN SH3; for Protein-protein interaction distance between Abp1 SH3-swapped baits, to CYK3: distance to Abp1 bait with CYK3 SH3; for Protein-protein interaction distance between Abp1 SH3-swapped baits, to DBNL: distance to Abp1 bait with DBNL SH3; for Protein-protein interaction distance between Abp1 SH3-swapped baits, to FUS1: distance to Abp1 bait with FUS1 SH3; for Protein-protein interaction distance between Abp1 SH3-swapped baits, to HCLS1: distance to Abp1 bait with HCLS1 SH3; for Protein-protein interaction distance between Abp1 SH3-swapped baits, to HOF1: distance to Abp1 bait with HOF1 SH3; for Protein-protein interaction distance between Abp1 SH3-swapped baits, to HSE1: distance to Abp1 bait with HSE1 SH3; for Protein-protein interaction distance between Abp1 SH3-swapped baits, to LSB1: distance to Abp1 bait with LSB1 SH3; for Protein-protein interaction distance between Abp1 SH3-swapped baits, to LSB3: distance to Abp1 bait with LSB3 SH3; for Protein-protein interaction distance between Abp1 SH3-swapped baits, to MYO3: distance to Abp1 bait with MYO3 SH3; for Protein-protein interaction distance between Abp1 SH3-swapped baits, to MYO5: distance to Abp1 bait with MYO5 SH3; for Protein-protein interaction distance between Abp1 SH3-swapped baits, to NBP2: distance to Abp1 bait with NBP2 SH3; for Protein-protein interaction distance between Abp1 SH3-swapped baits, to PIN3: distance to Abp1 bait with PIN3 SH3; for Protein-protein interaction distance between Abp1 SH3-swapped baits, to RVS167: distance to Abp1 bait with RVS167 SH3; for Protein-protein interaction distance between Abp1 SH3-swapped baits, to SDC25: distance to Abp1 bait with SDC25 SH3; for Protein-protein interaction distance between Abp1 SH3-swapped baits, to SHO1: distance to Abp1 bait with SHO1 SH3; for Protein-protein interaction distance between Abp1 SH3-swapped baits, to SLA1-1: distance to Abp1 bait with SLA1-1 SH3; for Protein-protein interaction distance between Abp1 SH3-swapped baits, to SLA1-2: distance to Abp1 bait with SLA1-2 SH3; for Protein-protein interaction distance between Abp1 SH3-swapped baits, to SLA1-3: distance to Abp1 bait with SLA1-3 SH3; for Protein-protein interaction distance between Abp1 SH3-swapped baits, to YSC84: distance to Abp1 bait with YSC84 SH3; for PPIs gained by Abp1 - SH3-dependent PPIs gained by Abp1 / SH3-dependent PPIs - SH3-dependent PPIs gained by Abp1 / SH3-dependent PPIs gained by Abp1: number of PPIs, Abp1 SH3-swapped with the listed SH3, Fig2D,S2F; for PPIs gained by Abp1 - SH3-dependent PPIs gained by Abp1 / SH3-dependent PPIs - SH3-dependent PPIs gained by Abp1: difference; for SH3-dependent PPIs gained by Abp1: DHFR-PCA
How it was run: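 Yeast DHFR-PCA in which Abp1 baits, carrying their SH3 replaced by CRISPR–Cas9 with one of 27 yeast SH3s or human CTTN, HCLS1 or DBNL SH3s, were mated against 575 SH3-associated DHFR F[3] preys plus 40 negative controls. Four tests were run per PPI. Diploids were selected twice (48 h, 30 °C), then grown 4 days on PCA selection media.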

Molecule	Protein-protein interaction distance between Abp1 SH3-swapped baits, to ABP1 (sheet Fig2C)	Protein-protein interaction distance between Abp1 SH3-swapped baits, to BBC1 (sheet Fig2C)	Protein-protein interaction distance between Abp1 SH3-swapped baits, to BEM1-1 (sheet Fig2C)	Protein-protein interaction distance between Abp1 SH3-swapped baits, to BEM1-2 (sheet Fig2C)	Protein-protein interaction distance between Abp1 SH3-swapped baits, to BOI1 (sheet Fig2C)	Protein-protein interaction distance between Abp1 SH3-swapped baits, to BOI2 (sheet Fig2C)	Protein-protein interaction distance between Abp1 SH3-swapped baits, to BUD14 (sheet Fig2C)	Protein-protein interaction distance between Abp1 SH3-swapped baits, to BZZ1-1 (sheet Fig2C)	Protein-protein interaction distance between Abp1 SH3-swapped baits, to BZZ1-2 (sheet Fig2C)	Protein-protein interaction distance between Abp1 SH3-swapped baits, to CDC25 (sheet Fig2C)	Protein-protein interaction distance between Abp1 SH3-swapped baits, to CTTN (sheet Fig2C)	Protein-protein interaction distance between Abp1 SH3-swapped baits, to CYK3 (sheet Fig2C)	Protein-protein interaction distance between Abp1 SH3-swapped baits, to DBNL (sheet Fig2C)	Protein-protein interaction distance between Abp1 SH3-swapped baits, to FUS1 (sheet Fig2C)	Protein-protein interaction distance between Abp1 SH3-swapped baits, to HCLS1 (sheet Fig2C)	Protein-protein interaction distance between Abp1 SH3-swapped baits, to HOF1 (sheet Fig2C)	Protein-protein interaction distance between Abp1 SH3-swapped baits, to HSE1 (sheet Fig2C)	Protein-protein interaction distance between Abp1 SH3-swapped baits, to LSB1 (sheet Fig2C)	Protein-protein interaction distance between Abp1 SH3-swapped baits, to LSB3 (sheet Fig2C)	Protein-protein interaction distance between Abp1 SH3-swapped baits, to MYO3 (sheet Fig2C)	other results
B1	13.53	13.63	19.15	36.03	16.12	19.6	22.11	10.79	16.06	30.47	16.7	31.13	10.88	23.48	10.8	34.67	12.29	3.731	0.00	9.625	Protein-protein interaction distance between Abp1 SH3-swapped baits, to MYO5 (sheet Fig2C): 8.063; Protein-protein interaction distance between Abp1 SH3-swapped baits, to NBP2 (sheet Fig2C): 21.33; Protein-protein interaction distance between Abp1 SH3-swapped baits, to PEX13 (distance to Abp1 bait with PEX13 SH3, sheet Fig2C): 7.361; Protein-protein interaction distance between Abp1 SH3-swapped baits, to PIN3 (sheet Fig2C): 5.817; Protein-protein interaction distance between Abp1 SH3-swapped baits, to RVS167 (sheet Fig2C): 7.852; Protein-protein interaction distance between Abp1 SH3-swapped baits, to SDC25 (sheet Fig2C): 36.63; Protein-protein interaction distance between Abp1 SH3-swapped baits, to SHO1 (sheet Fig2C): 11.76; Protein-protein interaction distance between Abp1 SH3-swapped baits, to SLA1-1 (sheet Fig2C): 32.92; Protein-protein interaction distance between Abp1 SH3-swapped baits, to SLA1-2 (sheet Fig2C): 23.82; Protein-protein interaction distance between Abp1 SH3-swapped baits, to SLA1-3 (sheet Fig2C): 5.438; Protein-protein interaction distance between Abp1 SH3-swapped baits, to YSC84 (sheet Fig2C): 3.425; PPIs gained by Abp1 - SH3-dependent PPIs gained by Abp1: 37; SH3-dependent PPIs - SH3-dependent PPIs gained by Abp1: 15; SH3-dependent PPIs gained by Abp1: 4
B2	13.24	13.47	19.25	36.52	16.11	19.63	22.3	10.43	15.96	30.85	16.72	31.53	10.77	23.45	10.61	35.15	12.02	0.00	3.731	9.135	Protein-protein interaction distance between Abp1 SH3-swapped baits, to MYO5 (sheet Fig2C): 7.822; Protein-protein interaction distance between Abp1 SH3-swapped baits, to NBP2 (sheet Fig2C): 21.49; Protein-protein interaction distance between Abp1 SH3-swapped baits, to PIN3 (sheet Fig2C): 5.513; Protein-protein interaction distance between Abp1 SH3-swapped baits, to RVS167 (sheet Fig2C): 7.392; Protein-protein interaction distance between Abp1 SH3-swapped baits, to SDC25 (sheet Fig2C): 37.12; Protein-protein interaction distance between Abp1 SH3-swapped baits, to SHO1 (sheet Fig2C): 11.57; Protein-protein interaction distance between Abp1 SH3-swapped baits, to SLA1-1 (sheet Fig2C): 33.34; Protein-protein interaction distance between Abp1 SH3-swapped baits, to SLA1-2 (sheet Fig2C): 24.03; Protein-protein interaction distance between Abp1 SH3-swapped baits, to SLA1-3 (sheet Fig2C): 5.759; Protein-protein interaction distance between Abp1 SH3-swapped baits, to YSC84 (sheet Fig2C): 3.911; PPIs gained by Abp1 - SH3-dependent PPIs gained by Abp1: 41; SH3-dependent PPIs - SH3-dependent PPIs gained by Abp1: 8; SH3-dependent PPIs gained by Abp1: 0
